± gives the standard deviation of the averaged measurements.
Tested on: ATP
Assay: switch fluorescence ratio, 500 uM ATP over buffer (Cy3 cluster intensity, sum of 5 cycles each) (fold (ratio)); higher = stronger signal-on switching upon ATP binding; sequences stand for … in TCGTCGGCAGCGTCAGATGTGTATAAGAGACAGTTTTTTTTTTTTTTTTTTTTTTTTT…TC
Conditions: aptamer strand: ATP DNA aptamer (quencher-CACCTGGGGGAGTATTGCGGAGGAAGG + anchor), 100 nM annealed; ATP concentration: 500 uM
Procedure, shortened: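 Cy3-labelled switching-strand clusters on a modified Illumina MiSeq flow-cell were annealed to 100 nM quencher-labelled ATP aptamer and imaged first in selection buffer, then after 15 min with 500 uM ATP at 22 °C. NaOH stripping and re-annealing separated each of five buffer/ATP cycles, and clusters outside 100-1000 RFU were excluded. The fluorescence ratio sums target-cycle Cy3 intensity over buffer-cycle Cy3 intensity per cluster and averages it per switch-domain sequence.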
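Also: ATP exposure 15 min at 22 °C before imaging.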

## GGGGGTTTCG
  switch fluorescence ratio: 0.999 ± 0.036

## GGGGTAAATC
  switch fluorescence ratio: 1.01 ± 0.024

## GGGGTAAGAG
  switch fluorescence ratio: 1.019 ± 0.0038

## GGGGTAAGTA
  switch fluorescence ratio: 0.986 ± 0.027

## GGGGTAAGTT
  switch fluorescence ratio: 0.989 ± 0.035

## GGGGTACAGG
  switch fluorescence ratio: 1.005 ± 0.0055

## GGGGTACGAG
  switch fluorescence ratio: 1.02 ± 0.033

## GGGGTAGGCG
  switch fluorescence ratio: 0.959 ± 0.051

## GGGGTAGTG
  switch fluorescence ratio: 1.03 ± 0.067

## GGGGTATCCA
  switch fluorescence ratio: 1.03 ± 0.03

## GGGGTATCTT
  switch fluorescence ratio: 1.04 ± 0.017

## GGGGTATGAG
  switch fluorescence ratio: 0.972 ± 0.029

## GGGGTATTGC
  switch fluorescence ratio: 1.004 ± 0.0076

## GGGGTATTTG
  switch fluorescence ratio: 0.99 ± 0.012

## GGGGTCAACG
  switch fluorescence ratio: 0.963 ± 0.035

## GGGGTCATTT
  switch fluorescence ratio: 0.979 ± 0.027

## GGGGTCCTGG
  switch fluorescence ratio: 0.943 ± 0.022

## GGGGTCGGGA
  switch fluorescence ratio: 0.999 ± 0.011

## GGGGTCGGGT
  switch fluorescence ratio: 0.99 ± 0.012

## GGGGTCGTGT
  switch fluorescence ratio: 0.992 ± 0.023

## GGGGTCGTTC
  switch fluorescence ratio: 0.99 ± 0.028

## GGGGTGAAAT
  switch fluorescence ratio: 1 ± 0.018

## GGGGTGAGCA
  switch fluorescence ratio: 0.976 ± 0.029

## GGGGTGAGTG
  switch fluorescence ratio: 1.02 ± 0.045

## GGGGTGCCAG
  switch fluorescence ratio: 0.963 ± 0.058

## GGGGTGCGTG
  switch fluorescence ratio: 0.984 ± 0.045

## GGGGTGCTG
  switch fluorescence ratio: 1.02 ± 0.036

## GGGGTGCTTG
  switch fluorescence ratio: 0.988 ± 0.026

## GGGGTGGGTA
  switch fluorescence ratio: 0.998 ± 0.028

## GGGGTGGTCG
  switch fluorescence ratio: 0.986 ± 0.083

## GGGGTGTGGT
  switch fluorescence ratio: 0.998 ± 0.038

## GGGGTTAACT
  switch fluorescence ratio: 0.975 ± 0.022

## GGGGTTAGAA
  switch fluorescence ratio: 0.984 ± 0.0077

## GGGGTTCAAA
  switch fluorescence ratio: 0.997 ± 0.016

## GGGGTTCATT
  switch fluorescence ratio: 1.01 ± 0.04

## GGGGTTCC
  switch fluorescence ratio: 0.998 ± 0.0092

## GGGGTTCCTC
  switch fluorescence ratio: 0.9919 ± 0.0096

## GGGGTTGACG
  switch fluorescence ratio: 0.964 ± 0.059

## GGGGTTGGGT
  switch fluorescence ratio: 1.03 ± 0.026

## GGGGTTGGTA
  switch fluorescence ratio: 1.005 ± 0.006

## GGGGTTGTAG
  switch fluorescence ratio: 0.993 ± 0.047

## GGGGTTGTGA
  switch fluorescence ratio: 1.01 ± 0.022

## GGGGTTTACA
  switch fluorescence ratio: 0.989 ± 0.026

## GGGGTTTCTT
  switch fluorescence ratio: 0.987 ± 0.048

## GGGGTTTGAA
  switch fluorescence ratio: 0.984 ± 0.016

## GGGGTTTGTT
  switch fluorescence ratio: 0.992 ± 0.034

## GGGGTTTTTG
  switch fluorescence ratio: 0.995 ± 0.029

## GGGTAAAGGA
  switch fluorescence ratio: 0.985 ± 0.028

## GGGTAACGGT
  switch fluorescence ratio: 0.9802 ± 0.0045

## GGGTAAGGGA
  switch fluorescence ratio: 0.961 ± 0.013

## GGGTAAGGGG
  switch fluorescence ratio: 1.05 ± 0.098

## GGGTAAGTAT
  switch fluorescence ratio: 0.958 ± 0.04

## GGGTAAGTGC
  switch fluorescence ratio: 1.047 ± 0.0017

## GGGTAATATG
  switch fluorescence ratio: 1.01 ± 0.049

## GGGTACCGAC
  switch fluorescence ratio: 1.08 ± 0.036

## GGGTACGCCG
  switch fluorescence ratio: 0.934 ± 0.025

## GGGTACGGAT
  switch fluorescence ratio: 1.04 ± 0.016

## GGGTACGGTA
  switch fluorescence ratio: 1.05 ± 0.029

## GGGTACGGTG
  switch fluorescence ratio: 1.07 ± 0.022

## GGGTACTTGG
  switch fluorescence ratio: 0.99 ± 0.026

## GGGTAGACTG
  switch fluorescence ratio: 0.955 ± 0.03

## GGGTAGCAGG
  switch fluorescence ratio: 1.04 ± 0.01

## GGGTAGCGCT
  switch fluorescence ratio: 0.969 ± 0.039

## GGGTAGGAGG
  switch fluorescence ratio: 0.982 ± 0.013

## GGGTATATGT
  switch fluorescence ratio: 1 ± 0.014

## GGGTATATTT
  switch fluorescence ratio: 1 ± 0.065

## GGGTATGAAG
  switch fluorescence ratio: 1.04 ± 0.049

## GGGTATGTAG
  switch fluorescence ratio: 0.986 ± 0.024

## GGGTATTGAG
  switch fluorescence ratio: 0.991 ± 0.012

## GGGTATTTTG
  switch fluorescence ratio: 0.997 ± 0.046

## GGGTCACTGG
  switch fluorescence ratio: 0.9765 ± 0.0056

## GGGTCAGGTG
  switch fluorescence ratio: 3.44 ± 0.48

## GGGTCAGTTT
  switch fluorescence ratio: 1.04 ± 0.054

## GGGTCCATGC
  switch fluorescence ratio: 1.01 ± 0.018

## GGGTCCATTC
  switch fluorescence ratio: 1.01 ± 0.02

## GGGTCGCGTG
  switch fluorescence ratio: 1.02 ± 0.033

Reference: the supplement of paper PMC10126150
